Data as given in the supplement of paper PMC10567573.

B1: EIF5 (parent)
chain: KQTIGNSCKACGYRGMLDTHHKLC

Variants of: B1
Assay: protein stability index of a GFP-peptide fusion (GPS, HEK-293T) (PSI 1-6); higher = more stable
Settings: c terminus: a fixed tail appended
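Further: lentivirally expressed fusions sorted by FACS into six bins by GFP to DsRed ratio, PSI derived from sequencing read proportions per bin multiplied by bin number.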

Compared with KQTIGNSCKACGVRGMLDTHHKLC [Y13V], KQTIGNSCKACGWRGMLDTHHKLC [Y13W] is lower in protein stability index: 2.91 for the first, 2.45 for the second.

Going from KQTIGNSCKACGTRGMLDTHHKLC [Y13T] to KQTIGNSCKACGLRGMLDTHHKLC [Y13L], the protein stability index falls from 3.19 to 2.94.

First: KQTIGNSCKACGKRGMLDTHHKLC [Y13K]
Second: KQTIGNSCKACGMRGMLDTHHKLC [Y13M]
The protein stability index of the first is higher: 3.97 for the first, 3.32 for the second.

Going from KQTIGNSCKACGIRGMLDTHHKLC [Y13I] to KQTIGNSCKACGHRGMLDTHHKLC [Y13H], the protein stability index rises from 2.16 to 2.77.

First: KQTIGNSCKACGQRGMLDTHHKLC [Y13Q]
Second: KQTIGNSCKACGPRGMLDTHHKLC [Y13P]
The protein stability index of the first is higher: 3.29 for the first, 2 for the second.

Going from KQTIGNSCKACGRRGMLDTHHKLC [Y13R] to KQTIGNSCKACGGRGMLDTHHKLC [Y13G], the protein stability index falls from 3.24 to 2.75.

First: KQTIGNSCKACGFRGMLDTHHKLC [Y13F]
Second: KQTIGNSCKACGSRGMLDTHHKLC [Y13S]
The protein stability index of the first is lower: 3.21 for the first, 3.37 for the second.

Going from KQTIGNSCKACGNRGMLDTHHKLC [Y13N] to KQTIGNSCKACGYRGMLETHHKLC [D18E], the protein stability index falls from 3.46 to 3.35.

Compared with KQTIGNSCKACGYRGMLCTHHKLC [D18C], KQTIGNSCKACGYRGMLATHHKLC [D18A] is lower in protein stability index: 3.19 for the first, 2.85 for the second.

First: KQTIGNSCKACGYHGMLDTHHKLC [R14H]
Second: KQTIGNSCKACGYMGMLDTHHKLC [R14M]
The protein stability index of the first is higher: 3.42 for the first, 2.97 for the second.

Compared with KQTIGNSCKACGYTGMLDTHHKLC [R14T], KQTIGNSCKACGYYGMLDTHHKLC [R14Y] is lower in protein stability index: 3.52 for the first, 2.64 for the second.

Compared with KQTIGNSCKACGYPGMLDTHHKLC [R14P], KQTIGNSCKACGYSGMLDTHHKLC [R14S] is lower in protein stability index: 3.69 for the first, 3.51 for the second.

First: KQTIGNSCKACGYDGMLDTHHKLC [R14D]
Second: KQTIGNSCKACGYCGMLDTHHKLC [R14C]
The protein stability index of the first is lower: 3.41 for the first, 4.75 for the second.

Going from KQTIGNSCKACGYVGMLDTHHKLC [R14V] to KQTIGNSCKACGYEGMLDTHHKLC [R14E], the protein stability index falls from 3.15 to 3.1.

Compared with KQTIGNSCKACGYIGMLDTHHKLC [R14I], KQTIGNSCKACGYKGMLDTHHKLC [R14K] is higher in protein stability index: 3.33 for the first, 3.89 for the second.

Compared with KQTIGNSCKACGYAGMLDTHHKLC [R14A], KQTIGNSCKACGYFGMLDTHHKLC [R14F] is higher in protein stability index: 2.93 for the first, 3.14 for the second.

Going from KQTIGNSCKACGYGGMLDTHHKLC [R14G] to KQTIGNSCKACGYQGMLDTHHKLC [R14Q], the protein stability index rises from 3.29 to 3.35.

First: KQTIGNSCKACGYLGMLDTHHKLC [R14L]
Second: KQTIGNSCKACGYNGMLDTHHKLC [R14N]
The protein stability index of the first is lower: 2.96 for the first, 3.04 for the second.

Compared with KQTIGNSCKACGYWGMLDTHHKLC [R14W], KQTIGNSCKACGYRGMFDTHHKLC [L17F] is higher in protein stability index: 2.12 for the first, 2.55 for the second.

Going from KQTIGNSCKACGYRGMWDTHHKLC [L17W] to KQTIGNSCKACGYRGMPDTHHKLC [L17P], the protein stability index rises from 2.31 to 3.88.

Compared with KQTIGNSCKACGYRGMYDTHHKLC [L17Y], KQTIGNSCKACGYRGMRDTHHKLC [L17R] is higher in protein stability index: 3.1 for the first, 3.44 for the second.

Compared with KQTIGNSCKACGYRGMNDTHHKLC [L17N], KQTIGNSCKACGYRGMKDTHHKLC [L17K] is lower in protein stability index: 3.65 for the first, 3.44 for the second.

Compared with KQTIGNSCKACGYRGMADTHHKLC [L17A], KQTIGNSCKACGYRGMQDTHHKLC [L17Q] is higher in protein stability index: 3.66 for the first, 3.85 for the second.

First: KQTIGNSCKACGYRGMSDTHHKLC [L17S]
Second: KQTIGNSCKACGYRGMCDTHHKLC [L17C]
The protein stability index of the first is lower: 4.24 for the first, 4.42 for the second.

Compared with KQTIGNSCKACGYRGMDDTHHKLC [L17D], KQTIGNSCKACGYRGMTDTHHKLC [L17T] is lower in protein stability index: 4.68 for the first, 3.91 for the second.

First: KQTIGNSCKACGYRGMMDTHHKLC [L17M]
Second: KQTIGNSCKACGYRGMEDTHHKLC [L17E]
The protein stability index of the first is lower: 2.96 for the first, 3.98 for the second.

Compared with KQTIGNSCKACGYRGMIDTHHKLC [L17I], KQTIGNSCKACGYRGMGDTHHKLC [L17G] is higher in protein stability index: 3.33 for the first, 3.77 for the second.

Compared with KQTIGNSCKACGYRGMVDTHHKLC [L17V], KQTIGNSCKACGYRGMHDTHHKLC [L17H] is higher in protein stability index: 2.6 for the first, 3.63 for the second.

Compared with KQTIGNSCKACGYRPMLDTHHKLC [G15P], KQTIGNSCKACGYRMMLDTHHKLC [G15M] is lower in protein stability index: 2.93 for the first, 1.84 for the second.

Going from KQTIGNSCKACGYRSMLDTHHKLC [G15S] to KQTIGNSCKACGYRAMLDTHHKLC [G15A], the protein stability index falls from 2.12 to 1.78.

First: KQTIGNSCKACGYRFMLDTHHKLC [G15F]
Second: KQTIGNSCKACGYRWMLDTHHKLC [G15W]
The protein stability index of the first is higher: 2.24 for the first, 1.52 for the second.

Going from KQTIGNSCKACGYRYMLDTHHKLC [G15Y] to KQTIGNSCKACGYRVMLDTHHKLC [G15V], the protein stability index falls from 2.59 to 2.12.

First: KQTIGNSCKACGYREMLDTHHKLC [G15E]
Second: KQTIGNSCKACGYRQMLDTHHKLC [G15Q]
The protein stability index of the first is higher: 2.24 for the first, 2.12 for the second.

First: KQTIGNSCKACGYRRMLDTHHKLC [G15R]
Second: KQTIGNSCKACGYRDMLDTHHKLC [G15D]
The protein stability index of the first is lower: 2.72 for the first, 2.94 for the second.

Going from KQTIGNSCKACGYRTMLDTHHKLC [G15T] to KQTIGNSCKACGYRLMLDTHHKLC [G15L], the protein stability index rises from 2.27 to 2.44.

First: KQTIGNSCKACGYRKMLDTHHKLC [G15K]
Second: KQTIGNSCKACGYRIMLDTHHKLC [G15I]
The protein stability index of the first is lower: 2.11 for the first, 2.26 for the second.

First: KQTIGNSCKACGYRCMLDTHHKLC [G15C]
Second: KQTIGNSCKACGYRHMLDTHHKLC [G15H]
The protein stability index of the first is lower: 2.44 for the first, 3.1 for the second.

Compared with KQTIGNSCKACGYRNMLDTHHKLC [G15N], KQTIGNSCKACGYRGQLDTHHKLC [M16Q] is higher in protein stability index: 2.45 for the first, 3.9 for the second.

Going from KQTIGNSCKACGYRGCLDTHHKLC [M16C] to KQTIGNSCKACGYRGILDTHHKLC [M16I], the protein stability index falls from 3.75 to 3.07.

Going from KQTIGNSCKACGYRGNLDTHHKLC [M16N] to KQTIGNSCKACGYRGFLDTHHKLC [M16F], the protein stability index falls from 3.63 to 2.58.

First: KQTIGNSCKACGYRGALDTHHKLC [M16A]
Second: KQTIGNSCKACGYRGELDTHHKLC [M16E]
The protein stability index of the first is lower: 3.94 for the first, 4.14 for the second.

First: KQTIGNSCKACGYRGTLDTHHKLC [M16T]
Second: KQTIGNSCKACGYRGWLDTHHKLC [M16W]
The protein stability index of the first is higher: 4.14 for the first, 2.62 for the second.

First: KQTIGNSCKACGYRGRLDTHHKLC [M16R]
Second: KQTIGNSCKACGYRGKLDTHHKLC [M16K]
The protein stability index of the first is lower: 3.29 for the first, 4.35 for the second.

First: KQTIGNSCKACGYRGHLDTHHKLC [M16H]
Second: KQTIGNSCKACGYRGGLDTHHKLC [M16G]
The protein stability index of the first is higher: 4.16 for the first, 3.91 for the second.

Going from KQTIGNSCKACGYRGSLDTHHKLC [M16S] to KQTIGNSCKACGYRGVLDTHHKLC [M16V], the protein stability index falls from 3.8 to 3.27.

Going from KQTIGNSCKACGYRGPLDTHHKLC [M16P] to KQTIGNSCKACGYRGYLDTHHKLC [M16Y], the protein stability index falls from 4.45 to 2.98.

Going from KQTIGNSCKACGYRGLLDTHHKLC [M16L] to KQTIGNSCKACGYRGDLDTHHKLC [M16D], the protein stability index rises from 3.51 to 4.72.
